Assay results published in patent US20140378537A1 (Genentech, published 2014).
Blank lines part the entries; values can stand above or below the binder they belong to.

B3: murine BATF (other, UniProt O35284 1-125, looked up)
chain: MPHSSDSSDSSFSRSPPPGKQDSSDDVRKVQRREKNRIAAQKSRQRQTQKADTLHLESEDLEKQNAALRKEIKQLTEELKYFTSVLSSHEPLCSVLASGTPSPPEVVYSAHAFHQPHISSPRFQP
notes: AP-1 family transcription factor, used as nuclear extract
B4: murine IRF-4 (other)
chain: MNLETGSRGSEFGMSAVSCGNGKLRQWLIDQIDSGKYPGLVWENEEKSVFRIPWKHAGKQDYNREEDAALFKAWALFKGKFREGIDKPDPPTWKTRLRCALNKSNDFEELVERSQLDISDPYKVYRIVPEGAKKGAKQLTLDDTQMAMGHPYPMTAPYGSLPAQQVHNYMMPPHDRSWRDYAPDQSHPEIPYQCPVTFGPRGHHWQGPSCENGCQVTGTFYACAPPESQAPGIPIEPSIRSAEALALSDCRLHICLYYRDILVKELTTTSPEGCRISHGHTYDVSNLDQVLFPYPDDNGQRKNIEKLLSHLERGLVLWMAPDGLYAKRLCQSRIYWDGPLALCSDRPNKLERDQTCKLFDTQQFLSELQVFAHHGRPAPRFQVTLCFGEEFPDPQRQRKLITAHVEPLLARQLYYFAQQNTGHFLRGYELPEHVTTPDYHRSLRHSSIQE
notes: Transcription factor; Expressed from CMV vectors encoding murine IRF-4 in 293T cells and used as nuclear extract, or endogenous in mouse Th17 nuclear extracts; also called Pip

Tests used:
[1] = biological target: T1, BATF/JunB heterodimer (murine, UniProt O35284 1-125; P09450 1-344); assay: EMSA, 293T nuclear extracts, AICE probes
T1 construct: Formed by mixing 293T nuclear extracts, or endogenous in Th17 nuclear extracts; also called BATF/JunB complex
T1 sequence (looked up) 1: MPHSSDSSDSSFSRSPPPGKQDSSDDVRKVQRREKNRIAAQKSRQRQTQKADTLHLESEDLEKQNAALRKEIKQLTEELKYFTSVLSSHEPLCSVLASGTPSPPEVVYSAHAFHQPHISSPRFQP
T1 sequence (looked up) 2: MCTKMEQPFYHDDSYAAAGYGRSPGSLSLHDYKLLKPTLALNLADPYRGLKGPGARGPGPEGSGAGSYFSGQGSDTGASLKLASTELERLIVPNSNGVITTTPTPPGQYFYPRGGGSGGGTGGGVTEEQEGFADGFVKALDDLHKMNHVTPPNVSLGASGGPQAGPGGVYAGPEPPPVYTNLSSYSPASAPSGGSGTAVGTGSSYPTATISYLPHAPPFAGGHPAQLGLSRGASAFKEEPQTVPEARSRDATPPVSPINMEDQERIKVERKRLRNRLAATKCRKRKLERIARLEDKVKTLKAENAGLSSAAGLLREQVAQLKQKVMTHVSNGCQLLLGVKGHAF
Source text: (§1) (a-d) EMSAs using the Bcl11b probe and 293T nuclear extracts as a source of indicated proteins (a) c-Jun, BATF, IRF-4, (b) FosL2, JunB, IRF-4, (c) JunB, BATF, IRF-8 or (d) JunB, BATF, IRF-3 (e) EMSA using an ISRE containing probe and IRF-3 or IRF-4. Complexes were supershifted with indicated antibodies. Red and green arrows mark the ternary and quaternary protein-DNA complexes, respectively as in FIG. 1d. Data are representative of at least two independent experiments. (f-h) Th0 cells and Th2 cells differentiated in vitro (42 hours) and LPS-activated dendritic cells (6 hours) were subjected to chromatin crosslinking and immunoprecipitation with antibodies directed against IRF-4. Immunoprecipitated chromatin was deep sequenced and analyzed as in FIG. 3a.
(§2) Nuclear extracts were prepared from 293T cells (2×107), 48 hours after their transfection or from Th17 cells (8×107), 42 hours after their activation and differentiation. […]

[2] = biological target: T2, His-tagged IRF4 (murine, UniProt Q64287 1-450); assay: EMSA, 293T nuclear extracts, CTLA-4 and Bcl11b AICE DNA probes (DNA-dependent ternary complex)
T2 construct: not shown: His tag
T2 sequence: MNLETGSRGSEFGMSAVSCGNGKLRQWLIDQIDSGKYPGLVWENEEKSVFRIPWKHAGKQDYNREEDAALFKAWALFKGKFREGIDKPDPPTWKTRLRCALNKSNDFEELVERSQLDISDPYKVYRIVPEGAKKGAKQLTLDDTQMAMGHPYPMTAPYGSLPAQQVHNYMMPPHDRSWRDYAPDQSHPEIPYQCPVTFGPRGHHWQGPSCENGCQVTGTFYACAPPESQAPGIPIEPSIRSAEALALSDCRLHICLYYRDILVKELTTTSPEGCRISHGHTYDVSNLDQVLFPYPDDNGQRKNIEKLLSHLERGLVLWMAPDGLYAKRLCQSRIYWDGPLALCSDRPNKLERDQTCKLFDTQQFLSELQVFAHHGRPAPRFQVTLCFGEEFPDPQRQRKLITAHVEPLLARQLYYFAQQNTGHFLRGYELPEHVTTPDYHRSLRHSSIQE
Procedure: Positions of various protein/DNA complexes are indicated. Nuclear extracts were incubated with either the wild type Bcl11b or CTLA-4 probes or their indicated mutant counterparts in which either the IRF or AP-1 site or both were altered.
(§3) Nuclear extracts were prepared from 293T cells (2×107), 48 hours after their transfection or from Th17 cells (8×107), 42 hours after their activation and differentiation. Cells were incubated for 10 min in 1 ml of hypotonic buffer (10 mM Hepes pH7.6, 10 mM KCl, 0.1 mM EGTA, 1.5 mM MgCl, 1 mM DTT, 0.5 mM PMSF and the complete protease inhibitor mixture (Roche, #11697498001) and then lysed with the addition of 0.01% Triton-x-100. After centrifugation at maximum speed in an Eppendorf microfuge for 15 seconds the nuclear pellet was resuspended in 80 μl of the following buffer (420 mM NaCl, 20 mM Hepes pH7.9, 0.2 mM EDTA, 25% Glycerol, 1 mM DTT, 0.5 mM PMSF with complete protease inhibitor mixture). Nuclear proteins were extracted with intermittent vortexing and incubation for 15 minutes at […]. In-vitro binding assays were performed using reagents from the light-shift chemiluminescent EMSA kit (Thermo scientific) according to the manufacturer's protocol, with the exception of using FAMlabeled probes (Table 2, below). Protein-DNA complexes were resolved using 6%-TBE Gels (Invitrogen) at 100V and imaged with a Typhoon Trio Imager (Amersham Biosciences). […]

[3] = biological target: T3, murine JunB (murine, UniProt P09450 1-344); assay: EMSA supershift, Th17 nuclear extracts, IRF-site-mutated AICE probes
T3 construct: AP-1 family transcription factor, used as nuclear extract
T3 sequence (looked up): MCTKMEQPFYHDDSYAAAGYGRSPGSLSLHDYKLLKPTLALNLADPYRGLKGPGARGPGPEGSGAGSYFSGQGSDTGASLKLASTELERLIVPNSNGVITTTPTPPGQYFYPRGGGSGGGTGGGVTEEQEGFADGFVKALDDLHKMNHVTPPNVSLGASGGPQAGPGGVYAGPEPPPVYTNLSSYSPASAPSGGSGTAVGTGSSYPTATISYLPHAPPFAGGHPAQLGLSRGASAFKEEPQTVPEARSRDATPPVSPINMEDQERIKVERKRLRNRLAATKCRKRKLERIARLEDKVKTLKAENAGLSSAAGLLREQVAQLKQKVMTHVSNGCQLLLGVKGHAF

[4] = biological target: B4; assay: EMSA, Th17 nuclear extracts, Bcl11b and CTLA-4 probes
Procedure: as §3

[5] = biological target: T4, JunB/FosL2 heterodimer (murine, UniProt P09450 1-344; P47930 1-326); assay: EMSA on AICE DNA probes, 293T nuclear extracts
T4 construct: also called FosL2/JunB heterodimer
T4 sequence (looked up) 1: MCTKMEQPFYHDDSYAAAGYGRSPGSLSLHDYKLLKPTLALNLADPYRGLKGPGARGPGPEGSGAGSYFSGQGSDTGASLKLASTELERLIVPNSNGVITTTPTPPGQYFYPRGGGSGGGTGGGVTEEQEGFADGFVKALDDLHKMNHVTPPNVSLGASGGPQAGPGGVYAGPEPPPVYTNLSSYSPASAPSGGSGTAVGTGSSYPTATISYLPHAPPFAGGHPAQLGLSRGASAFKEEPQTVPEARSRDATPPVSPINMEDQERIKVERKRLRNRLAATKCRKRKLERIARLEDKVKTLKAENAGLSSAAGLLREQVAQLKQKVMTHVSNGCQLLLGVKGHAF
T4 sequence (looked up) 2: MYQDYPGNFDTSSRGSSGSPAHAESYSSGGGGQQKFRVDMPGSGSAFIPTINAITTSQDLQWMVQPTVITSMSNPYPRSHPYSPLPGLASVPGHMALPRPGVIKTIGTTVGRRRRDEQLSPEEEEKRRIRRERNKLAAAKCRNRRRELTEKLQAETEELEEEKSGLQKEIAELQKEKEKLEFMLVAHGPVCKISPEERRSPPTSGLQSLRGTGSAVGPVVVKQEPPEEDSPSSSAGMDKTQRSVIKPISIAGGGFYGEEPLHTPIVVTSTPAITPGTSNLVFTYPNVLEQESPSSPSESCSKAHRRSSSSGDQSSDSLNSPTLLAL
Source text: as §1, §2

[6] = biological target: T5, c-Jun/BATF heterodimer (murine, UniProt P05627 1-334; O35284 1-125); assay: EMSA, 293T nuclear extracts, AICE probes
T5 construct: also called BATF/cJun
T5 sequence (P05627 whole entry, one chain of several): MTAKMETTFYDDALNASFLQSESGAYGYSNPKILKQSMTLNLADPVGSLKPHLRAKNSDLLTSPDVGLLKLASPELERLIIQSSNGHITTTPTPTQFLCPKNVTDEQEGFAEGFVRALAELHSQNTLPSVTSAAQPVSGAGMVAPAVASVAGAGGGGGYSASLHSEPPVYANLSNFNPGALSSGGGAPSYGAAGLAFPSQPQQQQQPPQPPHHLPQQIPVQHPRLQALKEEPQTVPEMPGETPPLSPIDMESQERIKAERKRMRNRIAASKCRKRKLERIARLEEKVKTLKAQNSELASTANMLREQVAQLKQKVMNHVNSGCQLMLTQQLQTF
Source text: as §1, §2

[7] = biological target: B3; assay: cell-based or functional assay
[8] = biological target: T1, BATF/JunB heterodimer; assay: EMSA on Bcl11b AICE DNA probe, 293T nuclear extracts
Source text: as §1, §2

- binding result [1]: binds
B1: murine IRF-8 (other)
chain: MCDRNGGRRLRQWLIEQIDSSMYPGLIWENDEKTMFRIPWKHAGKQDYNQEVDASIFKAWAVFKGKFKEGDKAEPATWKTRLRCALNKSPDFEEVTDRSQLDISEPYKVYRIVPEEEQKCKLGVAPAGCMSEVPEMECGRSEIEELIKEPSVDEYMGMTKRSPSPPEACRSQILPDWWVQQPSAGLPLVTGYAAYDTHHSAFSQMVISFYYGGKLVGQATTTCLEGCRLSLSQPGLPKLYGPDGLEPVCFPTADTIPSERQRQVTRKLFGHLERGVLLHSNRKGVFVKRLCQGRVFCSGNAVVCKGRPNKLERDEVVQVFDTNQFIRELQQFYATQSRLPDSRVVLCFGEEFPDTVPLRSKLILVQVEQLYARQLVEEAGKSCGAGSLMPALEEPQPDQAFRMFPDICTSHQRPFFRENQQITV
notes: Expressed from a CMV vector encoding murine IRF-8 in 293T cells and used as nuclear extract; also called ICSBP

- binding result [2]: binds
B2: Flag-tagged BATF (other, murine, UniProt O35284 1-125, looked up)
chain: MPHSSDSSDSSFSRSPPPGKQDSSDDVRKVQRREKNRIAAQKSRQRQTQKADTLHLESEDLEKQNAALRKEIKQLTEELKYFTSVLSSHEPLCSVLASGTPSPPEVVYSAHAFHQPHISSPRFQP
notes: not shown: Flag tag

Binder: B3
- binding result [3]: binds
- binding result [4]: binds

Binder: B4
- binding result [5]: no binding
- binding result [6]: binds
- CTLA-4 levels (intracellular, flow cytometry) in T cells transduced with IRF4 and/or BATF retroviruses [7]: 3 fold
- ICOS levels (surface expression, flow cytometry) in Th0 cells transduced with IRF4 and/or BATF retroviruses [7]: ~6 fold
- frequency of IL-17A producing cells by intracellular flow cytometry [7]: 2 fold

- binding result [8]: no binding
B5: murine IRF-3 (other, UniProt P70671 1-419, looked up)
chain: METPKPRILPWLVSQLDLGQLEGVAWLDESRTRFRIPWKHGLRQDAQMADFGIFQAWAEASGAYTPGKDKPDVSTWKRNFRSALNRKEVLRLAADNSKDPYDPHKVYEFVTPGARDFVHLGASPDTNGKSSLPHSQENLPKLFDGLILGPLKDEGSSDLAIVSDPSQQLPSPNVNNFLNPAPQENPLKQLLAEEQWEFEVTAFYRGRQVFQQTLFCPGGLRLVGSTADMTLPWQPVTLPDPEGFLTDKLVKEYVGQVLKGLGNGLALWQAGQCLWAQRLGHSHAFWALGEELLPDSGRGPDGEVHKDKDGAVFDLRPFVADLIAFMEGSGHSPRYTLWFCMGEMWPQDQPWVKRLVMVKVVPTCLKELLEMAREGGASSLKTVDLHISNSQPISLTSDQYKAYLQDLVEDMDFQATGNI
notes: Used as 293T nuclear extract
